In US20190269786A1 (published 2019):

B1: huMOV19-14 conjugate (antibody, human IgG1, kappa, V domains shown)
VH: QVQLVQSGAEVVKPGASVKISCKASGYTFTGYFMNWVKQSPGQSLEWIGRIHPYDGDTFYNQKFQGKATLTVDKSSNTAHMELLSLTSEDFAVYYCTRYDGSRAMDYWGQGTTVTVSS
VL: DIVLTQSPLSLAVSLGQPAIISCKASQSVSFAGTSLMHWYHQKPGQQPRLLIYRASNLEAGVPDRFSGSGSKTDFTLTISPVEAEDAATYYCQQSREYPYTFGGGTKLEIKR
modifications: drug attachment sites not stated (see heavy chain); compound 14 (indolinobenzodiazepine dimer, Gly-Gly-Gly linker, NHS ester) conjugated to the antibody, average 3.0 per antibody; residues not stated
B2: huMOV19-90 conjugate (antibody, human IgG1, kappa, V domains shown)
VH: QVQLVQSGAEVVKPGASVKISCKASGYTFTGYFMNWVKQSPGQSLEWIGRIHPYDGDTFYNQKFQGKATLTVDKSSNTAHMELLSLTSEDFAVYYCTRYDGSRAMDYWGQGTTVTVSS
VL: DIVLTQSPLSLAVSLGQPAIISCKASQSVSFAGTSLMHWYHQKPGQQPRLLIYRASNLEAGVPDRFSGSGSKTDFTLTISPVEAEDAATYYCQQSREYPYTFGGGTKLEIKR
modifications: drug attachment sites not stated (see heavy chain); compound 90 (indolinobenzodiazepine dimer, L-Ala-L-Ala linker, NHS ester) conjugated to the antibody, average 2.7 per antibody; residues not stated
B3: huMOV19-sulfo-SPDB-107 conjugate (antibody, human IgG1, kappa, V domains shown)
VH: QVQLVQSGAEVVKPGASVKISCKASGYTFTGYFMNWVKQSPGQSLEWIGRIHPYDGDTFYNQKFQGKATLTVDKSSNTAHMELLSLTSEDFAVYYCTRYDGSRAMDYWGQGTTVTVSS
VL: DIVLTQSPLSLAVSLGQPAIISCKASQSVSFAGTSLMHWYHQKPGQQPRLLIYRASNLEAGVPDRFSGSGSKTDFTLTISPVEAEDAATYYCQQSREYPYTFGGGTKLEIKR
modifications: drug attachment sites not stated (see heavy chain); compound 107 linked through sulfo-SPDB linker to the antibody, average 2.7 per antibody; residues not stated
B4: huML66-90 conjugate (antibody, human IgG1, kappa, V domains shown)
VH: QVQLQESGPGLVKPSETLSLTCTVSGLSLASNSVSWIRQPPGKGLEWMGVIWNHGGTDYNPSIKSRLSISRDTSKSQVFLKMNSLTAADTAMYFCVRKGGIYFDYWGQGVLVTVSS
VL: DTVLTQSPSLAVSPGERATISCRASESVSTLMHWYQQKPGQQPKLLIYLASHRESGVPARFSGSGSGTDFTLTIDPMEAEDTATYYCQQSRNDPWTFGQGTKLELKR
modifications: drug attachment sites not stated (see heavy chain); compound 90 conjugated to the antibody, average 2.7 per antibody; residues not stated

Key:
Assay in all cases: cell-based or functional assay
[1] = target: T1, folate receptor 1 (FOLR1) (human, UniProt P15328 25-234)
[2] = target: T1, folate receptor 1 (FOLR1); remark: listed apart in the source
[3] = target: T1, folate receptor 1 (FOLR1); remark: listed apart in the source
EGFR = EGFR (UniProt P00533 25-1210, limits assumed)

T1 sequence (P15328 25-234): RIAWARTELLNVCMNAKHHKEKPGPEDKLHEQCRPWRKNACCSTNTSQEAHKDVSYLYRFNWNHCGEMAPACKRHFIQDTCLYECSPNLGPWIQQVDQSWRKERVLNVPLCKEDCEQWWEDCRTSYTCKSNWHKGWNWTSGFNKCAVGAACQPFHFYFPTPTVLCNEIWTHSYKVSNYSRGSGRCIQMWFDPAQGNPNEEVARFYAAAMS

Binder	IC50, in vitro cytotoxicity (WST-8), Ishikawa cells, conjugate [3]	IC50, in vitro cytotoxicity (WST-8), KB cells, conjugate [3]	IC50, in vitro cytotoxicity (WST-8), NCI-H2110 cells, conjugate [3]	IC50, in vitro cytotoxicity, Ishikawa cells, conjugate + unmodified antibody (1 µM huMOV19) [3]	IC50, in vitro cytotoxicity, KB cells, conjugate + unmodified antibody (1 µM huMOV19) [3]	IC50, in vitro cytotoxicity, NCI-H2110 cells, conjugate + unmodified antibody (1 µM huMOV19) [3]	also measured
B1							IC50, in vitro cytotoxicity (WST-8) against KB cells [1]: 0.004 nM
B2	0.05 nM	0.005 nM	0.1 nM	1 nM	1 nM	4 nM	IC50, in vitro cytotoxicity (WST-8), KB cells, -Block [2]: 0.004 nM; IC50, in vitro cytotoxicity (WST-8), NCI-H2110 cells, -Block [2]: 0.02 nM; IC50, in vitro cytotoxicity, KB cells, +Block (1 µM blocking anti-FOLR1 antibody huMOV19) [2]: 0.8 nM; IC50, in vitro cytotoxicity, NCI-H2110 cells, +Block (1 µM blocking anti-FOLR1 antibody huMOV19) [2]: 10 nM
B3	0.05 nM	0.005 nM	0.1 nM	2 nM	0.8 nM	7 nM	
B4							EC50, in vitro cytotoxicity (WST-8), Detroit-562 cells (EGFR): 0.016 nM; EC50, in vitro cytotoxicity (WST-8), NCI-H292 cells (EGFR): 0.012 nM; EC50, in vitro cytotoxicity (WST-8), NCI-H1703 cells (EGFR): 0.02 nM; EC50, in vitro cytotoxicity, Detroit-562 cells, +block (excess unconjugated huML66 antibody) (EGFR): 2.35 nM; EC50, in vitro cytotoxicity, NCI-H292 cells, +block (excess unconjugated huML66 antibody) (EGFR): 1.57 nM; EC50, in vitro cytotoxicity, NCI-H1703 cells, +block (excess unconjugated huML66 antibody) (EGFR): 2.14 nM
